Each binder was assayed against recombinant HLA-A*0201 refolded with purified human beta2-microglobulin (human) (assay: circular dichroism melting of the refolded peptide-HLA-b2m complex (temperature at which 50% is melted)).
LLMGTLGIVCPIC (modifications not checked) [peptide A2.1/4] gave a Tm of 41 °C.
Binder YMLDLQPET (modifications not checked) [peptide A2.2] has a Tm of 52.5 °C.
TLGIVCPIC (modifications not checked) [peptide A2.4] showed a Tm of 41.5 °C.

Source: US7097843
